# Measurements from US20160264649A1.
# Experiments:
# Experiment in all cases: cell-based or functional assay
# [1] = target: HIV-1 APV_17 Env on pseudovirus (HIV-1)
# [2] = target: HIV-1 MGRM-C-019 Env on pseudovirus (HIV-1)
# [3] = target: HIV-1 MGRM-AG-001 Env (HIV-1)
# [4] = target: HIV-1 MGRM-C-006 Env on pseudovirus (HIV-1)
# [5] = target: HIV-1 MGRM-Chronic-B-024 Env on pseudovirus (HIV-1)
# [6] = target: HIV-1 MGRM-D-018 Env (HIV-1)
# [7] = target: HIV-1 MGRM-D-019 Env (HIV-1)
# [8] = target: HIV-1 MGRM-C-002 Env on pseudovirus (HIV-1)
# [9] = target: HIV-1 PVO.4 (Acute) Env on pseudovirus (HIV-1)
# [10] = target: HIV-1 97ZA012 Env on pseudovirus (HIV-1)
# [11] = target: HIV-1 MGRM-G-027 Env (HIV-1)
# [12] = target: HIV-1 MGRM-Chronic-B-017 Env on pseudovirus (HIV-1)
# [13] = target: HIV-1 94UG114 Env (HIV-1)
# [14] = target: HIV-1 MGRM-C-010 Env on pseudovirus (HIV-1)
# [15] = target: HIV-1 MGRM-Chronic-B-004 Env on pseudovirus (HIV-1)
# [16] = target: HIV-1 MGRM-D-029 Env (HIV-1)
# [17] = target: HIV-1 MGRM-F1-017 Env (HIV-1)
# [18] = target: HIV-1 LAVI_C3 Env on pseudovirus (HIV-1)
# [19] = target: HIV-1 MGRM-D-008 Env (HIV-1)
# [20] = target: HIV-1 MGRM-F1-006 Env (HIV-1)
# [21] = target: HIV-1 MGRM-Chronic-B-010 Env on pseudovirus (HIV-1)
# [22] = target: HIV-1 MGRM-D-001 Env (HIV-1)
# [23] = target: HIV-1 92BR020 Env (HIV-1)
# [24] = target: HIV-1 JRCSF Env on pseudovirus (HIV-1) (UniProt P20871)
# [25] = target: HIV-1 MGRM-F1-018 Env (HIV-1)
# [26] = target: HIV-1 MGRM-AE-001 Env (HIV-1)
# [27] = target: HIV-1 MGRM-D-022 Env (HIV-1)
# [28] = target: HIV-1 MGRM-G-011 Env (HIV-1)
# [29] = target: HIV-1 MGRM-C-017 Env on pseudovirus (HIV-1)
# [30] = target: HIV-1 TRJ0.58 (Acute) Env on pseudovirus (HIV-1)
# [31] = target: HIV-1 MGRM-F1-012 Env (HIV-1)
# [32] = target: HIV-1 MGRM-AG-013 Env (HIV-1)
# [33] = target: HIV-1 MGRM-C-005 Env on pseudovirus (HIV-1)
# [34] = target: HIV-1 LAVI_C22 Env on pseudovirus (HIV-1)
# [35] = target: HIV-1 MGRM-Chronic-B-002 Env on pseudovirus (HIV-1)
# [36] = target: HIV-1 MGRM-AG-002 Env (HIV-1)
# HIV-1 APV-6 Env (HIV-1) = target: HIV-1 APV-6 Env (HIV-1)
# [37] = target: HIV-1 QH0692.42 (Acute) Env on pseudovirus (HIV-1)
# [38] = target: HIV-1 MGRM-AE-005 Env (HIV-1)
# [39] = target: HIV-1 MGRM-Chronic-B-018 Env on pseudovirus (HIV-1)
# [40] = target: HIV-1 CAAN.A2 (Acute) Env on pseudovirus (HIV-1)
# [41] = target: HIV-1 MGRM-F1-014 Env (HIV-1)
# [42] = target: HIV-1 MGRM-C-015 Env on pseudovirus (HIV-1)
# [43] = target: HIV-1 MGRM-AE-004 Env (HIV-1)
# [44] = target: HIV-1 MGRM-Chronic-B-001 Env on pseudovirus (HIV-1)
# [45] = target: HIV-1 92UG005 Env (HIV-1)
# [46] = target: HIV-1 MGRM-D-005 Env (HIV-1)
# [47] = target: HIV-1 92UG001 Env (HIV-1)
# [48] = target: HIV-1 MGRM-AE-002 Env (HIV-1)
# [49] = target: HIV-1 MGRM-AG-006 Env (HIV-1)
# [50] = target: HIV-1 MGRM-Chronic-B-023 Env on pseudovirus (HIV-1)
substance,measurement,setting,value
1495_C14 (PGC14) (antibody),IC50,[1],> 50 µg/mL
same,IC50,[2],12 µg/mL
same,"IC50 (µg/ml), pseudovirus neutralization",[3],> 50 µg/mL
same,IC50,[4],> 50 µg/mL
same,IC50,[5],> 50 µg/mL
same,"IC50 (µg/ml), pseudovirus neutralization",[6],> 50 µg/mL
same,"IC50 (µg/ml), pseudovirus neutralization",[7],> 50 µg/mL
same,IC50,[8],> 50 µg/mL
same,IC50,[9],> 50 µg/mL
same,IC50,[10],> 50 µg/mL
same,"IC50 (µg/ml), pseudovirus neutralization",[11],> 50 µg/mL
same,IC50,[12],> 50 µg/mL
same,"IC50 (µg/ml), pseudovirus neutralization",[13],> 50 µg/mL
same,IC50,[14],> 50 µg/mL
same,IC50,[15],> 50 µg/mL
same,"IC50 (µg/ml), pseudovirus neutralization",[16],> 50 µg/mL
same,IC50 (pseudovirus neutralization),[17],> 50 µg/mL
same,IC50,[18],12 µg/mL
same,"IC50 (µg/ml), pseudovirus neutralization",[19],> 50 µg/mL
same,IC50 (pseudovirus neutralization),[20],> 50 µg/mL
same,IC50,[21],27 µg/mL
same,"IC50 (µg/ml), pseudovirus neutralization",[22],> 50 µg/mL
same,neutralization IC50,[23],0.637 µg/mL
same,IC50,[24],15 µg/mL
same,IC50 (pseudovirus neutralization),[25],> 50 µg/mL
same,"IC50 (µg/ml), pseudovirus neutralization",[26],> 50 µg/mL
same,"IC50 (µg/ml), pseudovirus neutralization",[27],> 50 µg/mL
same,"IC50 (µg/ml), pseudovirus neutralization",[28],> 50 µg/mL
same,IC50,[29],> 50 µg/mL
same,IC50,[30],> 50 µg/mL
same,IC50 (pseudovirus neutralization),[31],> 50 µg/mL
same,"IC50 (µg/ml), pseudovirus neutralization",[32],> 50 µg/mL
same,IC50,[33],> 50 µg/mL
same,IC50,[34],25 µg/mL
same,IC50,[35],> 50 µg/mL
same,"IC50 (µg/ml), pseudovirus neutralization",[36],> 50 µg/mL
same,neutralization IC50,HIV-1 APV-6 Env (HIV-1),7.41 µg/mL
same,IC50,[37],> 50 µg/mL
same,"IC50 (µg/ml), pseudovirus neutralization",[38],> 50 µg/mL
same,IC50,[39],> 50 µg/mL
same,IC50,[40],> 50 µg/mL
same,IC50 (pseudovirus neutralization),[41],> 50 µg/mL
same,IC50,[42],> 50 µg/mL
same,"IC50 (µg/ml), pseudovirus neutralization",[43],> 50 µg/mL
same,IC50,[44],> 50 µg/mL
same,"IC50 (µg/ml), pseudovirus neutralization",[45],> 50 µg/mL
same,neutralization IC50,[45],> 50 µg/mL
same,"IC50 (µg/ml), pseudovirus neutralization",[46],> 50 µg/mL
same,"IC50 (µg/ml), pseudovirus neutralization",[47],> 50 µg/mL
same,"IC50 (µg/ml), pseudovirus neutralization",[48],> 50 µg/mL
same,"IC50 (µg/ml), pseudovirus neutralization",[49],> 50 µg/mL
same,IC50,[50],> 50 µg/mL
b12 (antibody),IC50,[1],> 50 µg/mL
same,IC50,[2],> 50 µg/mL
same,"IC50 (µg/ml), pseudovirus neutralization",[3],11.9 µg/mL
same,IC50,[4],> 50 µg/mL
same,IC50,[5],> 50 µg/mL
same,"IC50 (µg/ml), pseudovirus neutralization",[6],1.39 µg/mL
same,"IC50 (µg/ml), pseudovirus neutralization",[7],> 50 µg/mL
same,IC50,[8],> 50 µg/mL
same,IC50,[9],> 50 µg/mL
same,IC50,[10],> 50 µg/mL
same,"IC50 (µg/ml), pseudovirus neutralization",[11],> 50 µg/mL
same,IC50,[12],2.59 µg/mL
same,"IC50 (µg/ml), pseudovirus neutralization",[13],> 50 µg/mL
same,IC50,[14],> 50 µg/mL
same,IC50,[15],0.26 µg/mL
same,"IC50 (µg/ml), pseudovirus neutralization",[16],> 50 µg/mL
same,IC50 (pseudovirus neutralization),[17],> 50 µg/mL
same,IC50,[18],0.94 µg/mL
same,"IC50 (µg/ml), pseudovirus neutralization",[19],> 50 µg/mL
same,IC50 (pseudovirus neutralization),[20],> 50 µg/mL
same,IC50,[21],> 50 µg/mL
same,"IC50 (µg/ml), pseudovirus neutralization",[22],> 50 µg/mL
same,neutralization IC50,[23],27.5 µg/mL
same,neutralization IC90,[23],> 50 µg/mL
same,IC50,[24],0.21 µg/mL
same,IC50 (pseudovirus neutralization),[25],> 50 µg/mL
same,"IC50 (µg/ml), pseudovirus neutralization",[26],25.9 µg/mL
same,"IC50 (µg/ml), pseudovirus neutralization",[27],17.6 µg/mL
same,"IC50 (µg/ml), pseudovirus neutralization",[28],> 50 µg/mL
same,IC50,[29],> 50 µg/mL
same,IC50,[30],> 50 µg/mL
same,IC50 (pseudovirus neutralization),[31],> 50 µg/mL
same,"IC50 (µg/ml), pseudovirus neutralization",[32],> 50 µg/mL
same,IC50,[33],2.66 µg/mL
same,IC50,[34],7.64 µg/mL
same,IC50,[35],0.86 µg/mL
same,"IC50 (µg/ml), pseudovirus neutralization",[36],0.89 µg/mL
same,neutralization IC50,HIV-1 APV-6 Env (HIV-1),> 25 µg/mL
same,neutralization IC90,HIV-1 APV-6 Env (HIV-1),> 50 µg/mL
same,IC50,[37],0.73 µg/mL
same,"IC50 (µg/ml), pseudovirus neutralization",[38],0.63 µg/mL
same,IC50,[39],0.66 µg/mL
same,IC50,[40],> 50 µg/mL
same,IC50 (pseudovirus neutralization),[41],> 50 µg/mL
same,IC50,[42],13.3 µg/mL
same,"IC50 (µg/ml), pseudovirus neutralization",[43],> 50 µg/mL
same,IC50,[44],0.75 µg/mL
same,"IC50 (µg/ml), pseudovirus neutralization",[45],> 50 µg/mL
same,neutralization IC50,[45],> 50 µg/mL
same,neutralization IC90,[45],> 50 µg/mL
same,"IC50 (µg/ml), pseudovirus neutralization",[46],> 50 µg/mL
same,"IC50 (µg/ml), pseudovirus neutralization",[47],1.01 µg/mL
same,"IC50 (µg/ml), pseudovirus neutralization",[48],17.1 µg/mL
same,"IC50 (µg/ml), pseudovirus neutralization",[49],> 50 µg/mL
same,IC50,[50],> 50 µg/mL
